Substrate in series [1]: Nc1ccn([C@H]2C[C@H](O)[C@@H](COP(=O)(O)OP(=O)(O)OP(=O)(O)O)O2)c(=O)n1
The series is described as follows: purified protein. Format: biochemical, Pseudomonas aeruginosa. As to conditions: opposite undamaged template dG, 13/20-mer primer/template DNA 100 nM, 200 nM DinB, 10 mM MgCl2, pH 7.5, 25 °C.

Substrate in series [2]: Nc1ncnc2c1ncn2[C@H]1C[C@H](O)[C@@H](COP(=O)(O)OP(=O)(O)OP(=O)(O)O)O1
The series can be described thus: purified protein. The following applies: opposite template 8-oxo-dG (lesion), 13/20 8-oxo-dG-mer DNA 100 nM, 200 nM DinB, 10 mM MgCl2, pH 7.5, 25 °C. Format: biochemical, Pseudomonas aeruginosa.

A word on the Km: it is the concentration of substrate that gives half-maximal velocity. As usually defined, the kcat is the number of substrate molecules converted per active site and unit of time at saturation. In general, kcat/Km refers to the second-order rate constant that governs catalysis at low substrate concentration.

B1: P. aeruginosa DinB (DNA Pol IV) (Pseudomonas aeruginosa PAO1) (protein)
chain: MRKIIHIDCDCFYAALEMRDDPSLRGKALAVGGSPDKRGVVATCSYEARAYGVRSAMAMRTALKLCPDLLVVRPRFDVYRAVSKQIHAIFRDYTDLIEPLSLDEAYLDVSASPHFAGSATRIAQDIRRRVAEELHITVSAGVAPNKFLAKIASDWRKPDGLFVITPEQVDGFVAELPVAKLHGVGKVTAERLARMGIRTCADLRQGSKLSLVREFGSFGERLWGLAHGIDERPVEVDSRRQSVSVECTFDRDLPDLAACLEELPTLLEELDGRLQRLDGSYRPDKPFVKLKFHDFTQTTVEQSGAGRDLESYRQLLGQAFARGNRPVRLIGVGVRLLDLQGAHEQLRLF
notes: C-terminally hexahistidine-tagged, recombinant, purified as described earlier
Turning to B1, in the series “purified protein [1]”, the Km came to 5.4 ± 2.3 µM, the kcat stood at 0.12 ± 0.01 s⁻¹ and the kcat/Km was determined as 22000 M⁻¹ s⁻¹. Moreover, in “purified protein [2]”, the Km turned out to be 15 ± 5.0 µM, the kcat is 0.066 ± 0.006 s⁻¹ and the kcat/Km is 4000 M⁻¹ s⁻¹.
